Reference: patent US20220056091A1

T1: Fc fused human IL-18BP isoform a (IL-18BPa) (human), O95998
T1 chain: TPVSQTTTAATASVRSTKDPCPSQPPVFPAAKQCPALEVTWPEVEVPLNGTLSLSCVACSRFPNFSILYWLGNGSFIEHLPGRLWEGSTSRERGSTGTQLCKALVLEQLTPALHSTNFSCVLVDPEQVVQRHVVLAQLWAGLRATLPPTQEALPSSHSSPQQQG


Molecular target: T1, Fc fused human IL-18BP isoform a …
Experiment: SPR, Fc-IL-18BPa captured, 1:1 model
Settings: remark: other sources report otherwise

Kd | koff | kon | Binder
323 nM | 0.0154 s⁻¹ | 47800 M⁻¹ s⁻¹ | Modified IL-18 polypeptide of SEQ ID NO: 2 (E06K, K53A, S55A), Q14116 37-193 (ligand) YFGKLKSKLSVIRNLNDQVLFIDQGNRPLFEDMTDSDCRDNAPRTIFIISMYADAQPRGMAVTISVKCEKISTLSCENKIISFKEMNPPDNIKDTKSDIIFFQRSVPGHDNKMQFESSSYEGYFLACEKERDLFKLILKKEDELGDRSIMFTVQNED
> 1000 nM |  |  | Modified IL-18 polypeptide of SEQ ID NO: 3 (Y01G, F02A, E06K, M51G, K53A, D54A, S55A, T63A), Q14116 37-193 (ligand) GAGKLKSKLSVIRNLNDQVLFIDQGNRPLFEDMTDSDCRDNAPRTIFIISGYAAAQPRGMAVAISVKCEKISTLSCENKIISFKEMNPPDNIKDTKSDIIFFQRSVPGHDNKMQFESSSYEGYFLACEKERDLFKLILKKEDELGDRSIMFTVQNED
1000 nM |  |  | Modified IL-18 polypeptide of SEQ ID NO: 17 (E06K, K53A, S55A, C38S, C68S, C76S, C127S, K70C), Q14116 37-193 (ligand) YFGKLKSKLSVIRNLNDQVLFIDQGNRPLFEDMTDSDSRDNAPRTIFIISMYADAQPRGMAVTISVKSECISTLSSENKIISFKEMNPPDNIKDTKSDIIFFQRSVPGHDNKMQFESSSYEGYFLASEKERDLFKLILKKEDELGDRSIMFTVQNED
